One test has as its target T1, integrin αvβ6 (human, UniProt P06756).
T1 chain 1: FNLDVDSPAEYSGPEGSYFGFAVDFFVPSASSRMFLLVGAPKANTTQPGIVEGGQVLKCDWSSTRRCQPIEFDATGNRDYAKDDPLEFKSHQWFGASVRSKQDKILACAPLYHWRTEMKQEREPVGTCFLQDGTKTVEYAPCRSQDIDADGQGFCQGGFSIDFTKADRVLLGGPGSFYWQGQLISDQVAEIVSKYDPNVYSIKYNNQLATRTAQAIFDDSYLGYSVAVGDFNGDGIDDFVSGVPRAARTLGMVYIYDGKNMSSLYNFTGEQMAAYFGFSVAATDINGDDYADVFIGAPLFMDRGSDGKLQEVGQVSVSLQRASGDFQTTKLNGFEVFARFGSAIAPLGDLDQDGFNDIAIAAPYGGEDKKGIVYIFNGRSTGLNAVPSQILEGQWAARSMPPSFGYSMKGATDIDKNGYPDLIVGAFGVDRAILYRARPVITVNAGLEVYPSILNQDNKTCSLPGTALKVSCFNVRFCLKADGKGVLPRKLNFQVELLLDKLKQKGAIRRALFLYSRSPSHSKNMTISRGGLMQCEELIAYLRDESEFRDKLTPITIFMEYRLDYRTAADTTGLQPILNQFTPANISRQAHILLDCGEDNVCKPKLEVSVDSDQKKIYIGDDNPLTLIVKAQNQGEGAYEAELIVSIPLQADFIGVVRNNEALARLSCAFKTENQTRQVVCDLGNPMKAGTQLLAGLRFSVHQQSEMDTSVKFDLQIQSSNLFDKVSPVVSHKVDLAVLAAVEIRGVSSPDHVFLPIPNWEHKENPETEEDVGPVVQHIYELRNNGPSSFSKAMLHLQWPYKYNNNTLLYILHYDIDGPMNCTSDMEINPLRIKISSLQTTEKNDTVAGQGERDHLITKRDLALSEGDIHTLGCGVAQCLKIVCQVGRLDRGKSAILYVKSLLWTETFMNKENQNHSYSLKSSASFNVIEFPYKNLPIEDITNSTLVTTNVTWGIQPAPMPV
T1 chain 2: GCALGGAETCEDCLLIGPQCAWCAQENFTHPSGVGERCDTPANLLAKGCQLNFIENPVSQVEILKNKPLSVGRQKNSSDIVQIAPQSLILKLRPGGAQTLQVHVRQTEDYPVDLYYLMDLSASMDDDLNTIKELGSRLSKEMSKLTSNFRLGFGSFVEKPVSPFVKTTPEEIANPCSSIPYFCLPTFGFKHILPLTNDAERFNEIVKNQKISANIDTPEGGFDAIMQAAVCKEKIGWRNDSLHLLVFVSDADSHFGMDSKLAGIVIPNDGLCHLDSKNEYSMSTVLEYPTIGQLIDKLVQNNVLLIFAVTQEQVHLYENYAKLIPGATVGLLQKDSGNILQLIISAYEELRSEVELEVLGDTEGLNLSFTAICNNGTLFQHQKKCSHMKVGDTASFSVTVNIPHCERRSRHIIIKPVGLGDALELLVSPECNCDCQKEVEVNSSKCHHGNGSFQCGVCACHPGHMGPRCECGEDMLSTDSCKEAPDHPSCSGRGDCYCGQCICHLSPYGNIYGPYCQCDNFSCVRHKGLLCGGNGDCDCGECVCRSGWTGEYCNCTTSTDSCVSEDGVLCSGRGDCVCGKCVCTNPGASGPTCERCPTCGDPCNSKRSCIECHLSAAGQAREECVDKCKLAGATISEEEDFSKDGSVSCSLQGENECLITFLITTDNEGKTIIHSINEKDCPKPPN
The test can be described thus: competition.

For another test, the target named is T2, integrin αvβ8 (human, UniProt P06756).
T2 chain 1: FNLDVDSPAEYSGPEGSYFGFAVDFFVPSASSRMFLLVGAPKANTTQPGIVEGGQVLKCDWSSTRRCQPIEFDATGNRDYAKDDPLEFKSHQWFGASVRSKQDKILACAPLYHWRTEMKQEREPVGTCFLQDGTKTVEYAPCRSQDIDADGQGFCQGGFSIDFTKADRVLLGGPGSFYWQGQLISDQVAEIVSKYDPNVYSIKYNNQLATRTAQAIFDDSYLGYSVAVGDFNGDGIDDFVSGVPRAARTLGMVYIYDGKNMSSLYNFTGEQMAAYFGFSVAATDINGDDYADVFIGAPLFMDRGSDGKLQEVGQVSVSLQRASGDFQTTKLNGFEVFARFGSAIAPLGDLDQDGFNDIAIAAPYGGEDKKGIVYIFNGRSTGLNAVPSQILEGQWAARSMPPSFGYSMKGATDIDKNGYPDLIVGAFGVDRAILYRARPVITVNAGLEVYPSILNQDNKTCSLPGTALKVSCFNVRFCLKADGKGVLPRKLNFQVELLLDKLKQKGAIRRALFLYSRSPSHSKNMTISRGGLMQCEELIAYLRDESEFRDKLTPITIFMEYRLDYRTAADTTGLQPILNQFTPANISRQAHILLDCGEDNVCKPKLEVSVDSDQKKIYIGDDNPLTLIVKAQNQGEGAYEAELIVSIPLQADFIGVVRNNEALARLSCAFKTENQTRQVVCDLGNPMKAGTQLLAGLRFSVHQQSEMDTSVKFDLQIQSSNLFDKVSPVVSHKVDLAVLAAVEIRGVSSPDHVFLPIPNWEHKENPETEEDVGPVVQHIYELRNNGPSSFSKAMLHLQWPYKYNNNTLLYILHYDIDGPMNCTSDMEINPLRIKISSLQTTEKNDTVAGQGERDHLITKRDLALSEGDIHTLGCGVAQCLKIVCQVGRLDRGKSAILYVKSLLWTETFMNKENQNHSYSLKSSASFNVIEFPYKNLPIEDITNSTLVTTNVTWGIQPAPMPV
T2 chain 2: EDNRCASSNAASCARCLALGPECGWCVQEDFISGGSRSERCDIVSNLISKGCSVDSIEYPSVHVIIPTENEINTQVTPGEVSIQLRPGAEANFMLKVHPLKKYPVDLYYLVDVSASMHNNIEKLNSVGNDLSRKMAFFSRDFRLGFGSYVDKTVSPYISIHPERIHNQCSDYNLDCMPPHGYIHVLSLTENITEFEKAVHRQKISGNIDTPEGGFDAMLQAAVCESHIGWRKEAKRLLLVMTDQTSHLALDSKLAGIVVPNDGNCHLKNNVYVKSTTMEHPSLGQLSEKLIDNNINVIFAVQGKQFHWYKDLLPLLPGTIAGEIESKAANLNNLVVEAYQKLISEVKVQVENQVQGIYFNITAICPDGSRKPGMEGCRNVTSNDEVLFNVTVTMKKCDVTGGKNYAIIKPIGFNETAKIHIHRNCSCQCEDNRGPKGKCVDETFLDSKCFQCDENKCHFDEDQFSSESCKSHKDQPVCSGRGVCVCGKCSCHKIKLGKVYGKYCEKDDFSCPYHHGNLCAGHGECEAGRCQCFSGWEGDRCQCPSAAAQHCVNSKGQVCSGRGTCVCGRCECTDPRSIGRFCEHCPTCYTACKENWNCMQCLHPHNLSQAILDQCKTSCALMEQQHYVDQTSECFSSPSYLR
The test can be described thus: competition.

[ ]: non-standard residue; d: D form. N‑Me‑Lys‑pentyne = N-methyl-lysine carrying a pentyne (alkyne) group; Pro‑4‑NH‑hexyne = not defined here; dNMeF = CN[C@H](Cc1ccccc1)C(=O)O

As a reminder, the IC50 is the midpoint of a concentration-inhibition curve. Lower therefore signals greater potency.

B1: Compound 7 (peptide)
chain: cyclo(RGDL[dP]PAL)
SMILES: CC(C)C[C@@H]1NC(=O)[C@H](C)NC(=O)[C@@H]2CCCN2C(=O)[C@H]2CCCN2C(=O)[C@H](CC(C)C)NC(=O)[C@H](CC(=O)O)NC(=O)CNC(=O)[C@H](CCCNC(=N)N)NC1=O
Turning to B1, the figures for the concentration for half-maximal inhibition (IC50) with integrin αvβ6 and with integrin αvβ8 were 0.032 µM and 0.00131 µM, respectively.

B2: Compound 5 (peptide)
chain: cyclo(RGDL[dP]PAH)
SMILES: CC(C)C[C@@H]1NC(=O)[C@H](CC(=O)O)NC(=O)CNC(=O)[C@H](CCCNC(=N)N)NC(=O)[C@H](Cc2c[nH]cn2)NC(=O)[C@H](C)NC(=O)[C@@H]2CCCN2C(=O)[C@H]2CCCN2C1=O
For the molecule B2, the IC50 in the test with integrin αvβ6 is 0.171 µM; with integrin αvβ8, 0.0022 µM.
On the same counts, the results for cyclo(RGDL[dP][Pro‑4‑NH‑hexyne]GL) (reading uncertain) [Compound 12 (Table 1)] are 0.217 µM and 0.0088 µM.

B3: Compound 10 (Table 1) (peptide)
chain: cyclo(RGDL[dP]PAA)
SMILES: CC(C)C[C@@H]1NC(=O)[C@H](CC(=O)O)NC(=O)CNC(=O)[C@H](CCCNC(=N)N)NC(=O)[C@H](C)NC(=O)[C@H](C)NC(=O)[C@@H]2CCCN2C(=O)[C@H]2CCCN2C1=O
Take B3: the IC50 came to 0.114 µM with integrin αvβ6 and 0.0081 µM in the test with integrin αvβ8.

B4: Compound 3 (peptide)
chain: cyclo(RGDL[dP]PSL)
SMILES: CC(C)C[C@@H]1NC(=O)[C@H](CO)NC(=O)[C@@H]2CCCN2C(=O)[C@H]2CCCN2C(=O)[C@H](CC(C)C)NC(=O)[C@H](CC(=O)O)NC(=O)CNC(=O)[C@H](CCCNC(=N)N)NC1=O
Consider B4, for which the concentration for half-maximal inhibition (IC50) was 0.187 µM with integrin αvβ6 and 0.0125 µM with integrin αvβ8.

B5: Compound 1 (peptide)
chain: cyclo(RGDL[dP]PAL)
SMILES: CC(C)C[C@@H]1NC(=O)[C@H](C)NC(=O)[C@@H]2CCCN2C(=O)[C@H]2CCCN2C(=O)[C@H](CC(C)C)NC(=O)[C@H](CC(=O)O)NC(=O)CNC(=O)[C@H](CCCNC(=N)N)NC1=O
On to B5, for which the IC50 came out at 0.084 µM with integrin αvβ6 and 0.0014 µM with integrin αvβ8.
The corresponding values for cyclo(RGDL[dP]PAF) [Compound 13 (Table 1)] are 0.081 µM and 0.00183 µM.

B6: Compound 6 (peptide)
chain: cyclo(RGDL[dNMeF]PAL)
SMILES: CC(C)C[C@@H]1NC(=O)[C@H](C)NC(=O)[C@@H]2CCCN2C(=O)[C@@H](Cc2ccccc2)N(C)C(=O)[C@H](CC(C)C)NC(=O)[C@H](CC(=O)O)NC(=O)CNC(=O)[C@H](CCCNC(=N)N)NC1=O
For the molecule B6, the IC50 in the test with integrin αvβ6 amounted to 0.139 µM; in the test with integrin αvβ8 it was 0.0094 µM.
On the same counts, the results for cyclo(RGDL[dP][N‑Me‑Lys‑pentyne]GL) [Compound 11 (Table 1)] are 0.041 µM and 0.0017 µM.

B7: Compound 4 (peptide)
chain: cyclo(RGDL[dP]PAY)
SMILES: CC(C)C[C@@H]1NC(=O)[C@H](CC(=O)O)NC(=O)CNC(=O)[C@H](CCCNC(=N)N)NC(=O)[C@H](Cc2ccc(O)cc2)NC(=O)[C@H](C)NC(=O)[C@@H]2CCCN2C(=O)[C@H]2CCCN2C1=O
For the molecule B7, the 50% inhibitory concentration (IC50) with integrin αvβ6 worked out at 0.156 µM; with integrin αvβ8 it was 0.0011 µM.

The values are drawn from patent US20200087347 (published 2020).
